According to the supplement of paper PMC12455559:

Experiment: purified protein yield per well (BCA); higher = higher soluble expression
Method in brief: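 Candidate enzymes were produced in E. coli C41(DE3) grown in 2 mL autoinduction cultures containing 100 µg/mL kanamycin, first at 37 °C for 2 h and then at 18 °C for 40 h. After cell lysis, protein was captured on Ni-charged magnetic beads and freed by SUMO protease cleavage on an OT-2 robot. Purified protein yield per well was read with the Pierce Rapid Gold BCA kit. Values under 25 ug (0.1 mg/mL) fall below the detection threshold.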

Sequence	purified protein yield per well [µg]
DEIGQAPTAANITGDGSFSTSSSAIFGQSGFGGGTAYYPNTAGKYPVVAFAPGFLSDWNALNWLGPRVASWGFVVVGVNTNTPFDFPDARGDQLLAALNWAVNSAPAAVRDKADGSRRGVSGWSMGGGGTLEALAKDTTGTVKAGVPLAPWHTNKTWSKVTEPVFIIGGQNDSVAAPASHAIPFYNSLGGPKSYLERAGADHFFPTKSNGTVSRAVVSFFKRHVSADTRFTPFLCGFSGLDVSNFRSNSC [ESM030]	< 25
DEIGQAPTAANITGNGSFAVTSAAVTGASGFGGGTVYYPTTAGTYPVVAIAPGFTQAWSAIQWLGPRLSSWGFVVVGINTNSSLDFPASRGTQLLAALNWAVASAPAAVTSRADGTRRGVAGYSMGGGGTLEALSQDTTGAVKAGVPMAPWHTDTTWQQVTEPVFILGGQNDSTAPVASHAKPMYNSLGGPKTYVELAGAPHSFPRTDNATTSRALVSWFKRWLNGDARFTPFTCGFTGTAISAYQTTAC [ESM099]	< 25
DEIGQAPTPSNITGSGSFSTTSSTITGQSGFGGGTVYYPTASGKYPVVAMVPGFLSDWSSISWLGPRVASWGFVVVGANTNSGLDDPTSRGDQLLAALNWAVNSSPTAVRGKTDGTRRGVAGWSMGGGGTLEALAKDTSGVVKAGVPLAPWHNDKSWNQVNEPVFLIGGENDGVASPDSHAIPFYNSLGGPKSFLERAGANHFFPNSSDPTVSRAVVSFLKRHVSADNRFSPYVCGFSGSAVSDFRSNSC [ESM133]	< 25
DEIGQAPTSSNITGNGSFSVSTYNISSLVSGFGGGVAYYPTTSGRYPVVAVSPGFTARWSSISWIGPRLASWGFVVVGIETNGLYDQPASRGSQLLAALNWAVNSAPSAITSRADGSRRGVAGHSMGGGGTLEALAADTTGNVKAGVPIAPWNSDKTWSGINEAVQIVGGESDTIASVGSHSIPFYNSVSGPKSYVELNGASHFFPQSTNSTLSRALVSWFKRYLNQDARFTPFTCGYGGTAVSDFRTNAC [ESM151]	< 25
DEIGSAPTAATITGNGSFATASTSVSSPSGFRGGQVYYPSTAGTYPVIAVVPGYLSYWSSISWLGPRLASWGFVVVGIETNSIYDQPASRGSQLRAALTWAVNTSPTTVRSRVDANRQGVAGWSMGGGGSLEALKADTSGRIKAAVPMAPWNSDQSWPEVTESVAIVGGQSDSVAPVSSHSIPFYNSLAGPKSYVELAGASHFFPNSDNPSLSRMIVSWFKRWINNDTRFTTFTCGFTGSAISSFRTNAC [ESM178]	27.5
DENPLERGPDPTESFIEQRRGNYDVAQRSINRMGSDGFRNGTIYYPTDSSDGQFGVIAISPGYTAGESSIAWLGARMASFGFVVVTINTTTRYDQPRQRSTQLLAALDHAMEDSVVGPMIDPERQAVMGHSMGGGGALQAAESRPEIDAVIPLTPWNLKRNWRNIDAATLIIGAERDTIASVRTHSIPFYESLTGADQRGYLELRGASHFAPNFSNTTIAKYSVAWMKRHLDDDERYEKFLTPGPTVGYSSGVSDYRLQ [DP097]	< 25
DEVGQAPTAANIVGDGSFATTSSAITGQSGFGGGTVYYPTTAGRYPVVAVAPGFLSDWNSLNWLGSRVASWGFVVVGVNTNSGFDFPPSRGDQLLAALNWAVGSAPVAVRDKVDGTRRGVAGWSMGGGGTLEALAKDTTGTVKAGVPLAPWHSDKTWEQVSEPVFLVGGQNDTVAAPSSHAIPFYNSLGGQKSYLELAGQAHFFPTTSNPTVSRAIVSWFKRFVSSDNRFTPFTCGYTGSAVSNFRSSAC [ESM100]	< 25
DGEYRVLTYTDFPDAPEFGDGTIYYPVGTPGPIGGVAIVPGFTEEQRAVAWLGPRLASHGYAVLIFDTNDRRDPAQVRADELMGAVRVLRAENSRRGSPLFGRIDASKMAIMGHSMGGGGALLAADAHSDQVSAVITFAPYEPTASFSEITVPTLIFGGSADPIAPVADHAWRHFNSIPAST [TEP123]	< 25
DGPYDVDWIYESDGLRNGPYYLGATLYYPINAPEPLASIVIVPGWGMPESTMQDWGPFFASWGIIAMTIGTNNPSTDWPEDRAEALLDAIETIKQENDRIDSPVNGRIDLNSFAVSGWSMGGGGAQLAAVMEPTLKAVIALCPWLDNWVLEPDDLNHSVPTLIFSGQYDVNAPPYLHANIHYNYTPSTTDKLLFEVEYGDHYVANGPNGGSGYVGDKALEWIN [TEP053]	< 25
DGPYDVDWIYESDGLRNGPYYLGATLYYPINTSESLASIVIVPGWGMPESSIQNWGPFFASWGIIAMTIGTNNPYDWPEERAEALLDAIETIKQENVRSDSPVYGMVDINSFAVCGYSMGGGGAQWAATIDSYLDAVVALNPALAIYDTINCTDPEFDYYCLVPEHLNHSTPVLIITGENEDANGTSATGYNHYEYTPNATDKMFFQVSNSGHEAAYGPYGANGEVGEKSMQWLKFHLFCLEFLNIIKLQRKLKMI [TEP020]	< 25
DGYERGPDPTPTRLLGNGSFSVSTTSVSSLVLGFGGGTIYYPTSTSEGTFGGVVLSPGFTATSGSYAGVARRVASHGFVVLVIDTNTIYDQPDSRGRQILDAVDYLTEDAPSAVASRLDESRIAVSGHSMGGGGTLYAADNRTSVIKTAVALQPWHTDKTWPGVDIPTMIIGAENDAIAPVSSHSIPFYASLSGAPEKAYGEVNNAGHLIANTNDDWQGRLFVSWLKRYLDEDLRYEAFLCPAPSSISLSDYRDTCPG [DP030]	< 25
DPTAFAVHGPDPTAQSVQAQRGPYATSRTTVSSGTGFNRGTIYYPTTTSEGTFSAVAVIPGFTESESTMSWYGTTLSSHGFVVFTLEAEGGLDFPDARADQLLAALDYLVNSSSVRDRVDRNRLGVMGHSMGGGGTLEAANERPSLRAAIPLAAWHNTKNFPQVQAATLVISAEGDSVASPASHSEPFYQGLRSAEKAYLELNNGNHFTTNSYTPTVTKYAVSWLKRFLDDDTRYSQFLCPPPPPDSNINEYRHTCPV [DP055]	< 25
DSPYERGPDPTERSIEATRGPFSVSTISVSDFSTPGFGAANITYPTSRSEGTFGVVAISPGYTAGESTIAWLRPRIASQGFVVISFDTNSRTDFPSSRGDQLLAALDYVIEDSSVRDRVDGSRQAVMGHSMGGGGSLEAASDRRSIEAVVGLTPWNSDKTWSEVDAASLMIGAENDSVAPARTHAIPFYNSLTGAEDRAYLELDGASHLAPTFSNTEIAKYSISWLKRFVDDDDRYDQFLCPAPSTGFGSPLSDSRVSCPLG [DP098]	< 25
DSQNPYERGPVPTLESITAESGPFAIGSVTVPAGSGQGFNSGTVYYPTDTSKGTFGAIAIMPGFLASQSDIAWYGPRLASHGFVVMTLNTSALWDFPADRSRQQLAALTYLTAQSTVKNRIDPGRLAVMGWSMGGGGSLQSAASTPSLKAAIPLAPWDLSNVSSRITVPTMIFGADGDTVASVDDFARPFYNGLANAPDKSLIVLKGTDHFTFAKPNTTIARYSVSWLKRFVDNDTRYDQFLCPTPNDPNTVVLQITCPL [DP028]	< 25
DSTSDQHGPDPTKASIEAERGPFDVARVTVPRAGASGFGGGTIYYPSSTEEGKFGAVAIAPGFTASQSSMAWFGPRLASQGFVVFTIDTVTTSDQPDMRGDELRAALRYLTGSSKVKDRIDADRLAVMGHSMGGGGTLEAAKDDPALRAAIPLTPWDLNKNFSRVKTPTMIIGGQSDTIAPVASHSEPFYRSLPDTASKAYLELRGASHFAPNMPNTTIAEYSISWLKRFVDDDRRYDQFLCPAPGASVQISQYLSTCPY [TEP166]	< 25
EENPYARGPAPTNASIEADRGSFQTATEKVPAGQGFGGGTIHYPTDTGQGTFGAIAIAPGFFETESAIAWYGPRLASQGFVVITFSTKSTWDTPDLRSDQLLAALRYVTDKSQAKDRVDPGRLAVMGHSMGGGGSLIAAQKAPTLKAAIPLTGWNPNTVFSDLKVPTFVVSAQNDFIAPDGSHSRPFYQSLPESLDKAYLLLAGAGHMAPTKPNVTIAKYSLSWLKRFVDEDTRYDQFLCPLPANDPKIAVYRGTCPLG [TEP064]	< 25
ENPHERGPDPTEESVTAPTGPFDTDTENVSSLVSGFGGGTIYYPTDDSEGTFGGVVVAPGYTASESSMSWYGERIASQGFVVFTIDTNTRYDQPNSRGRQMESALDYLVEDSDVDDMVDGDRLALMGHSMGGGGTLAAAEDRPELRAAIPLTPWHLSKDWSDVEVPTMIVGAENDSIASTRSHAVPLYESLDEDLDSTYLELRNATHFAPNISNTTIAKYSISWLKRFVDDDVRYEQFLCPAPDTGFGTDFSDYRDSCPHGGSV [DP041]	< 25
